From PMC7327620
“And” between values parts separate entries of the source, which are not always exact repeats. Identical values can stand only once.

Target: Tailless ΔHoc T4 phage capsids (bacteriophage T4) (UniProt P19896)
Assay: native gel or EMSA; Mal–Hoc mixed with ΔHoc T4 capsids at a series of molar ratios; 22°C for 2 h or overnight (16 h) in PBS with 10 mM MgCl2; 1% agarose, 100 V for 2 h, 1x Tris–Acetate–EDTA; GelCode blue protein stain

stoichiometry N (Mal–Hoc per capsid): 60 to 120 (2×) and 90
Substance: Maltase–SC–St–Hoc fusion (complex)
